In the DeepSol protein solubility set:

test: soluble on expression in E. coli; label from the status in PepcDB or PDB records

Sequence	soluble on expression in E. coli
VQLLEQSGAELVKPGASVKLSCTASGFNIEDSYIHWVKQRPEQGLEWIGRIDPEDGETKYAPKFQGKATITADTSSNTAYLHLRRLTSEDTAIYYCGRGAYYIKEDFWGQGTTLTVSSASTKGPSVFPLAPSSKAGGTAALGCLVKDYFPEPVTVSWNSGALTSGVHTFPAVLQSSGLYSLSSVVTVPSSSLGTQTYICNVNHKPSNTKVDKKVEPA	soluble
MGSDKIHHHHHHVLADAVAWTARTLPVRPSVPVLAGMLLDADDVDGHQRLTLSSFDYEVSAQVSVDVDIDEPGRILVSGKLLAEIVRNLPPQTVEVSTDGAKVVVSCGSAKFTILTLPVEDYPTLPAMPALTGSVLSDTFAAAVSQVAVAAGRDDTLPMLTGVRIEIEGSTVTLVSTDRYRLAVRELTWTPEDPNVSAVALVPAKTLADTAKSLTGGAQISIALSTAENGGEGMIGFEGGGRRTTTRLLEGEFPKYRKLLPESFNSVAEVQKNEFIEAVKRVSLVAERNTPLRLSFTSDRLVLEAGTGEEAQAVEELSATLEGDDIQIAFNSTFLLDGLNAIESDVAHLQFTTSTKPAIITGKPADDGTASDYRYLIMPVRISN	not soluble
MSLNSMKDAFNREIDYVRLSLTDRCDLRCTYCMPATGLCFLKKEQLLTDDEIIFLLRILAKEDIKKVKLTGGEPLVRPNLLSLIKRIKQISGIEKVTLTTNGMKLAREAQGLKEAGLDGINISLDTLDPEEFREITRVGQLRNVLAGLEQAIDVGLPNIKINTVARKELSEATIVELAEIAKKETVHLRFIEMMPIGLGKEHPGKQQEEVEAILTKYYGTLQPYQKPLGNGPASYYALKDFKGKIGFISALGHCFCETCNRIRITADGHLKTCLHSADGYSLKEALAMEQTAELLGIIKSGIACKPEKHLFLEQQGEQRFMSQIGGEGHHHHHH	not soluble
MRSKLNQYNQKRNFTRTLEPEGITEMPQEGLRFVVQHHLARRDHYDLRLEWDGAMLSWAVPKGPSYNTWDKRLAVQVEDHPLEYRHFEGTIPKGEYGGGVVMLWDEGFWEPYVDVDGGLHEGMLKFVLKGRRLKGRWALVRMKGKAGDKKDNWLLLKEKDDYVQTADGISQFTTSLEHHHHHH	not soluble
MSGEKIDITPKKDGGVLKLIKKEGQGVVKPTTGTTVKVHYVGTLENGTKFDSSRDRGDQFSFNLGRGNVIKGWDLGVATMTKGEVAEFTIRSDYGYGDAGSPPKIPGGATLIFEVELFEWSAEDISPDRDGTILRTIIVEGSKNSFPNDTSKVLAHCVGTYQGTEFYNREVNFHIGEGSEEGLPEGVERALRRFQLGEKSKIEIRGHKYTYGNSPPAGSNIPVNATLEFTIFLKEFEKVPATWEMTAEEKLDAAKQAKDRGTMYLQKGNLKLAYNKYKRAEEVLEYEKSTDPEKMAERETILNGAYLNLSLVCSKQNEQLECIKWCDKVLETKPGNVKALYRKATALLTMNEVRDAMKLFEKIVEVEPENKAAAQQIIVCRNTIREQNERDKKRFKNLFAKISTEEDKPTNTVEDEDEIVASTSGSSTSNA	soluble
MSSWAKVIYGASTELDAKVVELNVGGQFYTTTMGTLMKHPGSKFSEILSRSARHYKDAQGRFFIDRPGTYFGLLLDYLRTGQVPTEYVPEVYQEAKFYQIHLLVKILEDMPQIFGEQVARTQFLMGVPNYRENLEVLLHLARAEAVAMRSSKVVVCVVRTEEEDAKCVKPLHILEAKKTPVVKFGPWKAGPMTEDFVCCLEKDIRAKGYKVTSQRYYLSRDPYTCFWIFVFTWW	not soluble
MGSDKIHHHHHHMKRILVSLYEKEKYLDILRELHEKGWEIWASSGTAKFLKSNGIEANDVSTITGFENLLGGLVKTLHPEIFAGILGPEPRWDVVFVDLYPPPDIDIGGVALLRAAAKNWKKVKPAFDMETLKLAIEIDDEETRKYLAGMTFAFTSVYDSIRANQFVEGISLAFKREDLQLRYGENPHEKAFVYGKPAFEILHEGKTISFNNILDAENAWFMAKNLPRMGAVVVKHQSPCGAAIGEDKVEIVKKAIEADDESSFGGILAVNFEMDEEVAKSLKKYLEVIVAPSFTQEAIEVLSKKKVRLLKPGDYASWAGKMAFGSLVLSERKYPEGNFELVVGEPLSEKELEDLEFAYRVVEGAKSNAVLIAKDGVTVGIGSGQPSRKRAAWIATVMAGEKAKGAVAASDAFFPFPDSLEILAQAGVKAVVAPLGSIRDEEVIEKARELGITFYKAPSRVFRH	soluble
MGSSHHHHHHSSGLVPRGSHMRQLTEEETKVVFEKLAGYIGRNISFLVDNKELPHVFRLQKDRVYYVPDHVAKLATSVARPNLMSLGICLGKFTKTGKFRLHITSLTVLAKHAKYKIWIKPNGEMPFLYGNHVLKAHVGKMSDDIPEHAGVIVFAMNDVPLGFGVSAKSTSESRNMQPTGIVAFRQADIGEYLRDEDTLFT	soluble
MNYPVNPDLMPALMAVFQHVRTRIQSELDCQRLDLTPPDVHVLKLIDEQRGLNLQDLGRQMCRDKALITRKIRELEGRNLVRRERNPSDQRSFQLFLTDEGLAIHQHAEAIMSRVHDELFAPLTPVEQATLVHLLDQCLAAQPLEDI	soluble
MNVDLHCHSTASDGALSPTALVARAHEYGVRVLSLTDHDTLEGLEEARTAAHSLGMQLVNGVELSCTWGGATIHVLGYGFDTQAPALTEAIARLHEGRWLRAEEISRKLAIKGMPGALEGARAIQQALGDSGNAPARPHFADFMVRAGFVKDRAEAFRKWLGAGKLGDVKQHWPTLEDTVATLRASGAWVSLAHPSHYDFTRSKRRKLVGDFVQAGGHAIEVVNGMQPADQVGTLAILAREFGLLVSAGSDFHGPGNWGEIGTYRPVPEDLPPLWCRF	soluble
SMRPPIVIHSSGKKYGFSLRAIRVYMGDSDVYTVHHVVWSVEDGSPAQEAGLRAGDLITHINGESVLGLVHMDVVELLLKSGNKISLRTTALENTETSV	soluble
MSLSQNSESGNYRKYTSRNPLMGIVVSGFMKDLSETIAPLEEVGSIIDIGCGEGFIINCLNRKDITGVDVSKKALNIAKQKNPGCNFCTGSIYDLSFKKSSFDLVIATEVLEHLENPERALREIKRISKKYCIFSVPNEPYFRTMNFLRGKNLTRLGNDIEHLQNWSTKEFVKLVGRHFNVVEVKRPFPWTMVLCEKEGHHHHHH	not soluble
EERRVAYPVLRELTERTGETSALMVWNGNESMCVEQIPSRHQVKHLAPLGARYNEALSSSVQVFLASENEDRVRQLLRSGSITLTGVDEDAVEAYLLRLKESMERGWAVNFGETSIEEVGVASPVYDHRGNMVASVLIPAPKFRVSQDTLNSLGEACAAAAAKVTTRLGGRAPH	soluble
MAHHHHHHMAAMLRLTFALRLSSKQLSHGPLATHTRKQSFRQSKTALQVSRLRSQTQRANFNLQQELNRDFGARQYAFAQGRRSMQRAAEDLMYDRAYRAERHRGRAGEVYRTTKDRAAEVATARQLLQMQESTRRLMKKGRTQRVEAFRAQKQWNR	not soluble
MGSDKIHHHHHHMTTASTVYHYCGAESFFSIVRNGRLWVSDARKTNDRRELEWFKDLALKHIAKSAATGDKMLSDLHLALKVRFELLEDVSDYYVCCFSEKKDSVPQWVAYADRGTGFAIGFDVNALRKKIGAALLSPSYAPVPFGVGANGWGFGPVAYAEEGVANAQIDDLMSTIVSAPFVGEDVTDSARDHIDRVCAFCKHPDFQTEHEWRIVCNTSFLKKNAGLTGTDMLPDTKWRKGGYGLTPYRETVDVLDCVKEVIVGPGNADRDSIEYVKQFLRFSGVKAEVFLSVSPYR	not soluble
MGSDKIHHHHHHMIWNIDYFCNLRCKSCNAWQGKIFFPEDQIDKHLQEMKNNGIKIVSVTGGEPTLNKNVVDIIRKLKENHFFTHIATNGTNPYVLRKLYPYLDAVTISLDSNIPEEHNAYRGLKIFDTVVSNIKEAKSKVKIVTANMLVTNFNYFKVGEIADFANNELGVPLSMCFPEQDAYYFQDFQVTNDMIRQAFSYAYENYHKHVFGNMRSYYKEAVDFIDGKGSRACKAGQEIFYTDYRGKVHPCFEHVEVVLNKKPTWDIYDNKCHKCFTECFLEPSIDHTFEAASLIGKIWWFNHVKRRDIKYIETKRPKQVPS	not soluble
MKIAIVGAGIGGLTAAALLCEQGHEVKVFEKNSTITEVGAGIGIGGNVIDKLGKHDLAKGIKNIGQVINVMEILDDKDNVLSKAKLKKNTVNLTMTRQSLIDVIKSYVSESAIYTNHHVTHVDNNALKVVMHFEAQEAEAFDLCIGADGLHSNIRHTVAPNSKTQYQGYTVFRGLVEDIDIKSDNVAKEYWSAKGRVGVVPLLNNQAYWFISINAKENDATMQSYGKPHLQARFNHFPNEVRKVLDKQSETDILLHDIYDLQPLKTFVYQRVILLGDAAHATTPNMGQGAGQAMEDAIVLANCLQAYPFEAALQRYDKIRVDHTKKVIKRSRKIGKLAQRSNKIVISLRNSIAKIMPNRLVAAQTKFIYKSKNKLEHHHHHH	soluble
MGEKIKLEHGAGGEIMEELLRDVILKTLTLKSAGGIGLDALDDGATIPFGDKHIVFTIDGHTVKPLFFPGGDIGRLAVSGTVNDLAVMGAEPIALANSMIIGEGLDMEVLKRVLKSMDETAREVPVPIVTGDTKVVEDKIEMFVITAGIGIAEHPVSDAGAKVGDAVLVSGTIGDHGIALMSHREGIAFETELKSDVAPIWDVVKAVAETIGWENIHAMKDPTRAGLSNALNEIARKSNVGILVREADIPIRPEVRAASEMLGISPYDVANEGKVVMVVAREYAEEALEAMRKTEKGRNAAIIGEVIADYRGKVLLETGIGGKRFMEPPEGDPVPRIC	soluble
MSLREIVLINITGVDRPGLTAAITGVLAQGGVNILDIGQAVIHDTLSFGILVEIPDTVQGSSVLKDILFTAYKLDQQVRFTAVSEEGYQHWVEGQGKARHIVTLLTRKVTAEQLQCVSAITAKYGLNIDQIDRLSGRMPLDTPADKGKGCIEFTVRGEPADPKAMQAEFLAVAQELNVDIAFQQDSLFRRNRRLAVFDMDSTLIEAEVIDELAKAAGVGEQVAEITERAMRGELDFSESFKERLALLKGLDVGVLDEIGASLRLTEGAETLFSELKRLGYKTAILSGGFTYFAKQLQAKLGIDYVYANELEVVDGKVTGVAVEPIVNAQRKADLLRELAHKEGLSLEQTIAVGDGANDLPMLAIAGLGVAFRAKPLVKQSAKQAISTLGLDGVLYLLGEGHHHHHH	soluble
MSLTTETRSLYSQLPAIDRLLRDSSFLSLRDTYGHTRVVELLRQMLDEAREVIRGSQTLPAWCENWAQEVDARLTKEAQSALRPVINLTGTVLHTNLGRALQAEAAVEAVAQAMRSPVTLEYDLDDAGRGHRDRALAQLLCRITGAEDACIVNNNAAAVLLMLAATASGKEVVVSRGELVEIGGAFRIPDVMRQAGCTLHEVGTTNRTHANDYRQAVNENTALLMKVHTSNYSIQGFTKAIDEAELVALGKELDVPVVTDLGSGSLVDLSQYGLPKEPMPQELIAAGVSLVSFSGDKLLGGPQAGIIVGKKEMIARLQSHPLKRALRADKMTLAALEATLRLYLHPEALSEKLPTLRLLTRSAEVIQIQAQRLQAPLAAHYGAEFAVQVMPCLSQIGSGSLPVDRLPSAALTFTPHDGRGSHLESLAARWRELPVPVIGRIYDGRLWLDLRCLEDEQRFLEMLLKEGGSHHHHHH	soluble
MALHTVLIILSLLPMLEAQNPEHANFTIGEPITNETLSWLSDKWFFMGAAFRKLEYRQAIQTMQSEFFYLTTNLINDTIELRESQTIGDQCVYNSTHLGFQRENGTFSKYEGGVETFAHLIVLRKHGAFMLAFDLKDEKKRGLSLYAKRPDITPELQEVFQKAVTHVGMDESEIIFVDWKKDRCGQQEKKQLELGKETKKDPEEGQA	soluble
MAHHHHHHMVLYIIGLGLGDEKDITIKGKELIEKSDVVYLETYTSILFVSKDVLEETYKKSIEEVDRDFAEENCDKILDEAKNKKVSFLVVGDPLCATTHHDIILRAKKKNIDVEIIHNTSIISAIGECGMQLYNFGQIVSIPYFEDNYKPTSYYDKIYINLKNNFHTLCLLDIKVKERTVENIMRNKKIYEPPRFMTINDSIEQLLYCEHIHKKNIITKNTLGIAIIQIGTDNQQIISGDLLTLKDISYNKPLHSLIICAPTLHDIEKEYFDLYHYNNMKK	not soluble
